Experimental data reported in US20250179187A1 (REJUVERON SENESCENCE THERAPEUTICS, published 2025).
Where two headings read alike, the source gives them in different places.

T1: mouse PD-L2 on CHO-K1 cells over-expressing mPD-L2 GFP (mouse, UniProt Q9WUL5 20-247)
T1 construct: whole, on cells; also called cellular mPD-L2; not shown: GFP of the mPD-L2 GFP construct
T1 sequence (looked up): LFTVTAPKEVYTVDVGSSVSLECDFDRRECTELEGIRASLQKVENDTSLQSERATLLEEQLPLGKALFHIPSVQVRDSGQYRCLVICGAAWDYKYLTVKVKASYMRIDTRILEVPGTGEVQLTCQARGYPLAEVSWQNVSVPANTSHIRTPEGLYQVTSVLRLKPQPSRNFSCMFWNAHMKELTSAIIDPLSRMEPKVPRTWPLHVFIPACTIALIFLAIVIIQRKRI

T2: recombinant human PD-L2 (human PD-L2 antigen) (human, UniProt Q9BQ51 20-219, limits assumed)
T2 construct: The Biacore analyte and the ELISA antigen are only called human PD-L2 antigen / recombinant hPD-L2; Whole entry named; also called hPD-L2; recombinant hPD-L2
T2 sequence (looked up): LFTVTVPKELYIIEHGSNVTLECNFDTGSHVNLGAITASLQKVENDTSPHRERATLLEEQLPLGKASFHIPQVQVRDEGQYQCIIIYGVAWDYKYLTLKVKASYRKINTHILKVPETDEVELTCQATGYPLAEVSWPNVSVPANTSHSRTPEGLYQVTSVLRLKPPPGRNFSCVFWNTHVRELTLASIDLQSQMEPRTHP

T3: human PD-L2 on CHO-K1 cells of the Promega PD-1/PD-L2 blockade bioassay (human, UniProt Q9BQ51 20-273)
T3 sequence (looked up): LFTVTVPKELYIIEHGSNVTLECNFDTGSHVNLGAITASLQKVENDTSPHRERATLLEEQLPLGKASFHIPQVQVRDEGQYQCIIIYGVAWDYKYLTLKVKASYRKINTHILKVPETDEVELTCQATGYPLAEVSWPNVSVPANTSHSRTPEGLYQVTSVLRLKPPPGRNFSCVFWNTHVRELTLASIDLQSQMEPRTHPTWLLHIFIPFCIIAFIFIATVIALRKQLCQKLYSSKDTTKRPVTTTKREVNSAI

T4: human PD-L2 on CHO-K1 cells over-expressing hPDL2-GFP (human, UniProt Q9BQ51 20-273)
T4 construct: whole, on cells; also called cellular hPD-L2; cellular PDL2; not shown: GFP of the hPDL2-GFP construct
T4 sequence (looked up): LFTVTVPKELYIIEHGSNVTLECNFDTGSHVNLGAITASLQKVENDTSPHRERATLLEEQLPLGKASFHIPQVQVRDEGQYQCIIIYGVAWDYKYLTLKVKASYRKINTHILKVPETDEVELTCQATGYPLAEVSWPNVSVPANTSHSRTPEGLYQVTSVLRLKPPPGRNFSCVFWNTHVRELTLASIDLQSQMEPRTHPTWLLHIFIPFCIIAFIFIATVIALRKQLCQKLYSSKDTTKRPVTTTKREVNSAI

T5: recombinant mouse PD-L2 (Sino Biological, cat 50804-M08H-B) (mouse, UniProt Q9WUL5 20-219)
T5 construct: Bought protein; also called recombinant mPD-L2; recombinant mPDL2
T5 sequence (looked up): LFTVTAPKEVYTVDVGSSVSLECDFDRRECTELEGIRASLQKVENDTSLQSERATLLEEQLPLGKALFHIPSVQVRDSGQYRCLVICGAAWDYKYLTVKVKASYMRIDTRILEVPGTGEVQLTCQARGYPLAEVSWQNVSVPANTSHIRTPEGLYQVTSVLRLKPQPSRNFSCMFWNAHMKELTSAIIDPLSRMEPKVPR


How the values were obtained:
[1] = biological target: T1, mouse PD-L2 on CHO-K1 cells …; assay: flow cytometry on CHO-K1 cells overexpressing mPD-L2, mean fluorescence
Method: (§1) CHO-K1 cells over-expressing either hPDL2-GFP or mPD-L2 GFP were detached, washed in phosphate buffered saline (PBS) and adjusted to a cell concentration of around 1 million cells in cytometry buffer (CB, PBS containing 1% […]). Around 80,000 cells were then distributed into a round-bottom 96 well plate and the plate was centrifuged for 3 minutes at 400 g at 4° C. and supernatant discarded. Appropriate antibody concentrations in 50 microliter volumes were added to the wells and incubated for 30 minutes at 6-8° C. The plate was washed 3 times with PBS and relevant secondary antibodies (either AlexaFluor 647 Goat anti-Mouse IgG (H+L) (Invitrogen A21235/lot 1915807) or AlexaFluor 647 Goat anti-Rat IgG (H+L) (Invitrogen A21247/lot 1921562) were added for 30 minutes at 4° C. Cells were again washed with PBS two times, resuspended in CB and analyzed in either the Sony ID7000 Spectral Cell analyzer (Sony) or the GALLIOS Flow Cytometer (Beckman-Coulter) was used. EC₅₀ was calculated using the Sigmoidal 4PL equation of the GraphPad Prism-9 software.

[2] = biological target: T2, recombinant human PD-L2 (human PD-L2 …); assay: SPR (Biacore 8K), single cycle kinetics, antibody in culture supernatant, human PD-L2 antigen
Excerpt: Table 2: Single cycle kinetic parameters of chimeric (VH0/VK0) and humanized variants (tested as cell culture supernatants) binding to human PD-L2 antigen as determined using the Biacore 8K. As used herein, the term “KD” is intended to refer to the dissociation equilibrium constant of a particular antibody-antigen interaction, ka is the binding rate constant and kd is the dissociation rate constant. The binding affinity of antibodies of the disclosed invention may be measured or determined by standard antibody-antigen assays. The relative KD was calculated by dividing the KD of the humanized variant by that of the VH0/VK0 assayed in the same experiment.

[3] = biological target: T3, human PD-L2 on CHO-K1 cells of the …; assay: cell-based or functional assay
[4] = biological target: T3, human PD-L2 on CHO-K1 cells of the …; assay: cell-based or functional assay; remark: listed apart in the source
[5] = biological target: T4, human PD-L2 on CHO-K1 cells …; assay: flow cytometry on CHO-K1 cells expressing hPD-L2, median fluorescence
Method: as §1

[6] = biological target: T4, human PD-L2 on CHO-K1 cells …; assay: binding to cellular PDL2 (FIG. 1A by the text; flow cytometry on CHO-K1 cells expressing hPD-L2)
Method: as §1

[7] = biological target: T4, human PD-L2 on CHO-K1 cells …; assay: flow cytometry blocking assay: antibody titrated against recombinant hPD-1 (constant 15 micrograms/mL) binding to CHO-K1 cells expressing hPD-L2; signal falls with the antibody; column head on the sheet is EC50
Method: CHO-K1 cells over-expressing either hPDL2-GFP were detached, washed in phosphate buffered saline (PBS) and adjusted to a cell concentration of around 1 million cells in CB. Around 80,000 cells were then distributed into a round-bottom 96 well plate and the plate was centrifuged for 3 minutes at 400 g at 4° C. and supernatant discarded. A constant concentration of ligand recombinant hPD-1 ligand (Sino Biological 10377-H08H/lot LC13JA2207) of 15 micrograms/mL was incubated with respective concentration of antibody, added to the cells and incubated for 30 min at 6-8° C. Cells were washed 3 times in PBS and then incubated with a rabbit polyclonal anti-His (Abcam Ab1187/lot GR3369369-1) in CB and subsequently washed three times in PBS. Cells were then incubated with a labeled anti-rabbit secondary (AlexaFluor 647 Goat anti-Rabbit IgG (H+L) (Invitrogen A21244/lot 1910774) for 15 minutes at 4° C., washed two times in PBS, resuspended in CB and analyzed in the Sony ID7000 Spectral Cell analyzer (Sony).

[8] = biological target: T5, recombinant mouse PD-L2 (Sino …); assay: ELISA on recombinant mPD-L2 according to the legend; the y axis on the sheet reads 'Mean fluorescent unit'

Row | Binder | EC50 [1] | Kd [2] | Relative KD (KD of variant / KD of VH0/VK0) [2] | koff [2] | kon [2] | EC50 (PD-1/PD-L2 blockade reporter assay, luminescence) [3] | EC50 (PD-1/PD-L2 blockade reporter assay, luminescence) [4] | EC50 [5] | EC50 [6] | EC50 [7] | EC50 (read off the curve) [8]
1 | VH6/VK2 (antibody, V domains shown, hIgG1 backbone, CHO expressed) VH: QVQLVQSGAEVKKPGSSVKVSCKASGYSFSNYFIEWVKQPPGKGLEWIGLNIPGSGGSNYAEKFKGRVTITADKSTSTAYMELSSLRSEDTAVYYCARRRLPPDWYFDVWGQGTTVTVSS VL: DVVMTQSPLSLPVTLGQPASISCRSSQSLVHSDGNTYLHWYQQKPGQPPKLLIYKVSNRFSGVPDRFSGSGSGTDFTLKISRVEAEDVGVYYCSQSTHVPWTFGGGTKVEIK |  | 0.0588 nM | 1.64 | 0.000128 s⁻¹ |  | 0.64 nM |  |  |  |  | 
2 | VH8/VK3 (antibody, V domains shown, hIgG1 backbone, CHO expressed) VH: QVQLVQSGAEVKKPGSSVKVSCKASGYAFSNYFIEWVKQPPGKGLEWIGLNIPGSGGSNYAEKFKGRATITADKSTSTAYMELSSLRSEDTAVYYCARRRLPPDWYFDVWGQGTTVTVSS VL: DVVMTQSPLSLPVTLGQPASISCRSSQSLVHSGGNTYLHWYQQKPGQPPKLLIYKVSNRFSGVPDRFSGSGSGTDFTLKISRVEAEDVGVYFCSQSTHVPWTFGGGTKVEIK |  | 0.244 nM | 6.82 | 0.000388 s⁻¹ |  |  |  |  |  |  | 
3 | VH6/VK3 (antibody, V domains shown, hIgG1 backbone, CHO expressed) VH: QVQLVQSGAEVKKPGSSVKVSCKASGYSFSNYFIEWVKQPPGKGLEWIGLNIPGSGGSNYAEKFKGRVTITADKSTSTAYMELSSLRSEDTAVYYCARRRLPPDWYFDVWGQGTTVTVSS VL: DVVMTQSPLSLPVTLGQPASISCRSSQSLVHSGGNTYLHWYQQKPGQPPKLLIYKVSNRFSGVPDRFSGSGSGTDFTLKISRVEAEDVGVYFCSQSTHVPWTFGGGTKVEIK |  | 0.262 nM | 7.32 | 0.000444 s⁻¹ |  | 0.62 nM | 1.11 nM |  |  |  | 
4 | VH0/VK0-mIgG1 (parental murine monoclonal antibody VHP/VKP on mIgG1 backbone) (antibody, V domains shown, Murine IgG1 backbone; also called parental mouse antibody) VH: QVQLQQSGAELVRPGTSVKVSCKASGYAFSNYFIEWVKQRPGQGLEWIGLNIPGSGGSNYAEKFKGKATLTADKSSSTAYMQLSSLTSEDSAVYFCARRRLPPDWYFDVWGTGTTVTVSS VL: DVVMTQTPLSLPVSLGDQASISCRSSQSLVHSDGNTYLHWYLQKPGQSPKLLIYKVSNRFSGVPDRFSGSGSGTDFTLKISRVEAEDLGVYFCSQSTHVPWTFGGGTKLEIK |  |  |  |  |  |  | 1.11 nM | 0.538 nM | 0.219 nM | 0.6 nM | ~0.5 nM
5 | VH6/VK1 (antibody, V domains shown, hIgG1 backbone, CHO expressed) VH: QVQLVQSGAEVKKPGSSVKVSCKASGYSFSNYFIEWVKQPPGKGLEWIGLNIPGSGGSNYAEKFKGRVTITADKSTSTAYMELSSLRSEDTAVYYCARRRLPPDWYFDVWGQGTTVTVSS VL: DVVMTQSPLSLPVTLGQPASISCRSSQSLVHSDGNTYLHWYQQKPGQPPKLLIYKVSNRFSGVPDRFSGSGSGTDFTLKISRVEAEDVGVYFCSQSTHVPWTFGGGTKVEIK |  | 0.0529 nM | 1.48 | 0.000121 s⁻¹ |  | 0.82 nM |  |  |  |  | 

Continued by falling Kd [2], values first:

Row | EC50 [1] | Kd [2] | Relative KD (KD of variant / KD of VH0/VK0) [2] | koff [2] | kon [2] | EC50 (PD-1/PD-L2 blockade reporter assay, luminescence) [3] | EC50 (PD-1/PD-L2 blockade reporter assay, luminescence) [4] | EC50 [5] | EC50 [6] | EC50 [7] | EC50 (read off the curve) [8] | Binder
6 | 0.23 nM | 0.0528 nM | 1.47 | 0.000121 s⁻¹ |  | 1.29 nM |  |  |  |  |  | VH8/VK2 (antibody, V domains shown, hIgG1 backbone, CHO expressed) VH: QVQLVQSGAEVKKPGSSVKVSCKASGYAFSNYFIEWVKQPPGKGLEWIGLNIPGSGGSNYAEKFKGRATITADKSTSTAYMELSSLRSEDTAVYYCARRRLPPDWYFDVWGQGTTVTVSS VL: DVVMTQSPLSLPVTLGQPASISCRSSQSLVHSDGNTYLHWYQQKPGQPPKLLIYKVSNRFSGVPDRFSGSGSGTDFTLKISRVEAEDVGVYYCSQSTHVPWTFGGGTKVEIK
7 |  | 0.0523 nM | 1.46 | 0.000118 s⁻¹ |  | 0.6 nM |  |  |  |  |  | VH7/VK2 (antibody, V domains shown, hIgG1 backbone, CHO expressed) VH: QVQLVQSGAELKKPGSSVKVSCKASGYAFSNYFIEWVKQPPGKGLEWIGLNIPGSGGSNYAEKFKGRATITADKSTSTAYMELSSLRSEDTAVYYCARRRLPPDWYFDVWGQGTTVTVSS VL: DVVMTQSPLSLPVTLGQPASISCRSSQSLVHSDGNTYLHWYQQKPGQPPKLLIYKVSNRFSGVPDRFSGSGSGTDFTLKISRVEAEDVGVYYCSQSTHVPWTFGGGTKVEIK
8 | 0.16 nM | 0.0358 nM | 1 | 9.72e-05 s⁻¹ | 2.72e+06 M⁻¹ s⁻¹ | 0.64 nM |  |  |  |  |  | VH0/VK0 chimeric antibody (hIgG1 backbone) (antibody, V domains shown, Mouse variable regions on human IgG1 backbone, expressed in CHO cells; also called chimeric anti-PDL2 lead mAb VH0/VK0) VH: QVQLQQSGAELVRPGTSVKVSCKASGYAFSNYFIEWVKQRPGQGLEWIGLNIPGSGGSNYAEKFKGKATLTADKSSSTAYMQLSSLTSEDSAVYFCARRRLPPDWYFDVWGTGTTVTVSS VL: DVVMTQTPLSLPVSLGDQASISCRSSQSLVHSDGNTYLHWYLQKPGQSPKLLIYKVSNRFSGVPDRFSGSGSGTDFTLKISRVEAEDLGVYFCSQSTHVPWTFGGGTKLEIK
